Positions count from the first letter of the chain named.
B1: 2E08 (antibody, human IgG4, V domains shown)
VH: QVQMKESGAELVRPGVSVKISCKGSGYTFTDYAIHWVKQSHAKTLEWIGVISTYYGDASYNQKFKGKATMTVDKSSSTAYMELARLTSDDSAIYYCARSRGEYGNYDAMDYWGQGTSVTVSS
VL: DIVLTQSPASLAVSLGQRATISCKASQSVDYDGDSYMNWYQQKPGQPPKLLIYAASNLESGIPARFSGSGSGTDFTLNIHPVEEEDAATYYCQQSNEDPLTFGAGTKLELK
notes: chimeric human IgG4 (S-to-P, L-to-E at 248), human CL; also called Parental 2E08
B2: 2B11 (antibody, human IgG4, V domains shown)
VH: B1 VH with Q1E, M4L, K5V, T44S, D89E
VL: DIVLTQSPASLAVSLGQRATISCRASESVDSYGNSFMHWYQQKPGQPPKLLIYRASNLESGIPARFSGSGSRTDFTLTINPVEADDVATYYCQQSNEDPYTFGGGTKLEIK
notes: chimeric human IgG4 (S-to-P, L-to-E at 248), human CL; also called Parental 2B11
B3: 3A07 (antibody, human IgG4, V domains shown)
VH: QVQLQQSGAELVRPGAPVTLSCKASDYTFTDSEIHWVKQTPVHGLEWIGEIDPETGGTAYNQKFKGKATLTADKSSSTAYMELRSLTSEDSAVYYCSRETDYFFDYWGQGTTLTVSS
VL: ENVLTQSPAIMSASPGEKVTMTCSASSSVSYMYWYQQRPGSSPRLLIYDTSNLASGVPVRFSGSGSGTSYSLTISRMEAEDAATYYCQQWSSYPLTFGSGTKLEIK
notes: chimeric human IgG4 (S-to-P, L-to-E at 248), human CL; also called Parental 3A07
B4: 3B04 (antibody, human IgG4, V domains shown)
VH: B3 VH with S7P, P17S, D26G, S32Y, I34M, G57D, N61S, L83F
VL: DIQMTQTPASLSASVGETVTITCGASENIYGALNWYQRKQGKSPQLLIYGATNLADGMSSRFSGSGSGRQYSLKISSLHPDDFATYYCQNVLTTPWTFGGGTKLEIKR
notes: chimeric: mouse variable domains on human IgG4 HC (S-to-P and L-to-E at 248) and human CL; also called Parental 3B04; 3B04 chimeric
B5: 3D12 (antibody, human IgG4, V domains shown)
VH: B3 VH with S7P, P17S
VL: B4 VL with T7S, F83V, T93S
notes: chimeric: mouse variable domains on human IgG4 HC (S-to-P and L-to-E at 248) and human CL; also called Parental 3D12; 3D12 chimeric
B6: 3C10 (antibody, human IgG4, V domains shown)
VH: B3 VH with Q1E, P17S
VL: B3 VL with E1D, N2V, L4M, S7T, R38K, S99A, I105L
notes: chimeric human IgG4 (S-to-P, L-to-E at 248), human CL; also called Parental 3C10
B7: 3E09 (antibody, V domains shown)
VH: EVQLVESGGGLVKPGGSLKLSCEASGFTFSDYYMYWVRQTPEKRLEWVAAIGDGGIYTYYADTVKGRFTISRDNAKNILYLQMSSLKSNDTAMYYCARGTGDGFAYWGQGTLVTVS
VL: B2 VL with R54L, I62V, N80D, V87A, S95N
notes: chimeric human IgG4 (S-to-P, L-to-E at 248), human CL; also called Parental 3E09

Biological target: membrane LIGHT without residues 81-84 (EL4-NC-LIGHT cells) (human, UniProt O43557 1-240)
Sequence (O43557 other isoform, or with tags, fused parts or gaps): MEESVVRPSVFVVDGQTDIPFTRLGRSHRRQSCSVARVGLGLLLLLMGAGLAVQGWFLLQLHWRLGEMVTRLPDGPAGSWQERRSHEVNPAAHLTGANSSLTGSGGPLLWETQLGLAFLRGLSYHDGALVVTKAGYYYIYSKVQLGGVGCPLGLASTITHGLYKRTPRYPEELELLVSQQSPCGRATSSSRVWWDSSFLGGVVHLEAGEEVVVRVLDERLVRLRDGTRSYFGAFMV
Assay: cell-based or functional assay

| Binder | IC50, nM membrane LIGHT (IL-8 release from HT-29 cells) |
| --- | --- |
| B1 | 1.8 nM |
| B2 | 0.55 nM |
| B3 | 2 nM |
| B4 | 0.15 nM |
| B5 | 0.1 nM |
| B6 | 1.9 nM |

Biological target: T1, membrane LIGHT T191A (human, UniProt O43557 1-240)
T1 chain: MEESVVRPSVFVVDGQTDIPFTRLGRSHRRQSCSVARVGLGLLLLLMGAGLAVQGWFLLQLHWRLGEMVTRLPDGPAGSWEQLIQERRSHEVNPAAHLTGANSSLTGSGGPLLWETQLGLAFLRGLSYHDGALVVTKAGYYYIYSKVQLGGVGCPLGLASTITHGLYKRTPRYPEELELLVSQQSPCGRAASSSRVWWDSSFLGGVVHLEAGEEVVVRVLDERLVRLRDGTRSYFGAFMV
Assay: flow cytometry, transfected HEK293FF, mAb at EC50
Procedure: (§1) The day of transfection the cells were seeded in a 24-well plate at 0.6×10⁶ cells/well. Lipofectamine 2000 (ThermoFisher scientific), 3 μl, was mixed with 50 μl OptiMEM medium (GIBCO) and then added to 50 μl Opti-MEM medium containing 3 ug plasmid DNA and incubated for 20 min at RT to form DNA-Lipofectamine 2000 complexes which were then added to the HEK293FF cells and incubated at 37° C., 5% CO₂ for 24 hours. For each construct, in duplicate, 0.60×10⁶ cells/well were used in a 96 well round bottom plate. Cells were centrifuged for 3 minutes at 300×g at 4° C., the supernatant discarded and the cells washed with 150 μl FACS buffer (0.5% FBS in phosphate buffered saline). This process was repeated 3 times. […] The wells were washed 3 times as above and 50 μl/well of goat anti-human IgG FITC (1:1500 dilution in FACS buffer, SIGMA F9512-2ML) or goat anti-mouse APC (1/500 dilution in FACS buffer, BDBioscience 550826), as appropriate, was added to the wells and incubated for 30 min at 4° C. protected from the light, with shaking. The cells were then washed as above, resuspended in 100 μl of FACS buffer and binding of the antibodies to the constructs was measured using flow cytometry and a total of 10,000 cells were acquired for each sample. Controls of buffer and secondary antibody only as well as HEK293FF non transfected cells were also used.

| Binder | binding, % of WT |
| --- | --- |
| B7 | 88% |
| B1 | 22% |
| B2 | 1% |
| B3 | 4% |
| B4 | 2% |
| B5 | 8% |
| B6 | 3% |

Biological target: T2, membrane LIGHT S193A (human, UniProt O43557 1-240)
T2 chain: T1 chain with A191T, S193A
Assay: flow cytometry, transfected HEK293FF, mAb at EC50
Procedure: as §1

| Binder | binding, % of WT |
| --- | --- |
| B7 | 0% |
| B1 | 0% |
| B2 | 0% |
| B3 | 0% |
| B4 | 0% |
| B5 | 0% |
| B6 | 0% |

Biological target: T3, membrane LIGHT S194A (human, UniProt O43557 1-240)
T3 chain: T1 chain with A191T, S194A
Assay: flow cytometry, transfected HEK293FF, mAb at EC50
Procedure: as §1

| Binder | binding, % of WT |
| --- | --- |
| B7 | 1% |
| B1 | 3% |
| B2 | 0% |
| B3 | 1% |
| B4 | 0% |
| B5 | 2% |
| B6 | 0% |

Biological target: T4, membrane LIGHT R195A (human, UniProt O43557 1-240)
T4 chain: T1 chain with A191T, R195A
Assay: flow cytometry, transfected HEK293FF, mAb at EC50
Procedure: as §1

| Binder | binding, % of WT |
| --- | --- |
| B7 | 1% |
| B1 | 43% |
| B2 | 78% |
| B3 | 15% |
| B4 | 1% |
| B5 | 25% |
| B6 | 6% |

Biological target: T5, membrane LIGHT V196A (human, UniProt O43557 1-240)
T5 chain: T1 chain with A191T, V196A
Assay: flow cytometry, transfected HEK293FF, mAb at EC50
Procedure: as §1

| Binder | binding, % of WT |
| --- | --- |
| B7 | 34% |
| B1 | 99% |
| B2 | 73% |
| B3 | 77% |
| B4 | 80% |
| B5 | 70% |
| B6 | 78% |

Biological target: T6, membrane LIGHT W197A (human, UniProt O43557 1-240)
T6 chain: T1 chain with A191T, W197A
Assay: flow cytometry, transfected HEK293FF, mAb at EC50
Procedure: as §1

| Binder | binding, % of WT |
| --- | --- |
| B7 | 1% |
| B1 | 0% |
| B2 | 0% |
| B3 | 1% |
| B4 | 0% |
| B5 | 1% |
| B6 | 0% |

Biological target: T7, membrane LIGHT W198A (human, UniProt O43557 1-240)
T7 chain: T1 chain with A191T, W198A
Assay: flow cytometry, transfected HEK293FF, mAb at EC50
Procedure: as §1

| Binder | binding, % of WT |
| --- | --- |
| B7 | 48% |
| B1 | 83% |
| B2 | 77% |
| B3 | 82% |
| B4 | 81% |
| B5 | 83% |
| B6 | 86% |
